Test results published in US20230212312A1.

Target: complement factor C1q
Test: FACS, C1q on antibody-coated BT-474 cells, 10 ug/ml each

complement factor C1q, sequence (P02745 23-245, chain 1 of 3): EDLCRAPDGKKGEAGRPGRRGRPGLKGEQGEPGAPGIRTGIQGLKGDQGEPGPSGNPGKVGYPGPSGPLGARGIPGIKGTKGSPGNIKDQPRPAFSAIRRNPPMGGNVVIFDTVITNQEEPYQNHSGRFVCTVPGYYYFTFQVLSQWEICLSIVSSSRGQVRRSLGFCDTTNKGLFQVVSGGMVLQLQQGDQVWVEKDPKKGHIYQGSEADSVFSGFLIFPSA
complement factor C1q, sequence (P02746 28-253, chain 2 of 3, further chain): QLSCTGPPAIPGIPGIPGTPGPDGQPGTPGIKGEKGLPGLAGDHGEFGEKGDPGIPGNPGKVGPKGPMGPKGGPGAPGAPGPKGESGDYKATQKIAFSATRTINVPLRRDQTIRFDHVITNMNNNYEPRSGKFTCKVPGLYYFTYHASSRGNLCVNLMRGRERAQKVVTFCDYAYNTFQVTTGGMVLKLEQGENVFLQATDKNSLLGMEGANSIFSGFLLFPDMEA
complement factor C1q, sequence (P02747 29-245, chain 3 of 3, further chain): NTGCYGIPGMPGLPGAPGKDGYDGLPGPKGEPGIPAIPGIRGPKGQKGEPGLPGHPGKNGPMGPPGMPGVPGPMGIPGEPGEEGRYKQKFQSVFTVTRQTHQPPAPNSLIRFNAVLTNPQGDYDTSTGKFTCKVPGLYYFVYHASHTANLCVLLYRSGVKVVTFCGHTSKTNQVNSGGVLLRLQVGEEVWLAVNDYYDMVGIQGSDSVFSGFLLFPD

PE-signal (geomean): 2160
Substance: combination of trastuzumab and pertuzumab
